Numbering of substitutions follows the chain as printed. Names may count otherwise. Values belong to the binder of their own block, whether it stands above or below them.
Target: T1, His-tagged human TSLP antigen (huTSLP-his) (human)
T1 construct: Secreted from HEK293E and purified on nickel; whole entry named; also called Human TSLP-his
Test: ELISA, coated huTSLP-his;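 note: binding of antibodies to plate-bound TSLP read as absorbance at 450 nm after TMB colour development, EC50 derived from binding curves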
Procedure: The plate was incubated at 4° C. overnight. After the liquid was discarded, 5% skim milk (skim milk powder from Brightdairy) blocking solution diluted with PBS was added at 200 μL/well, and the plate was incubated in an incubator at 37° C. for 2 h for blocking. After the blocking, the blocking solution was discarded, and the plate was washed 3 times with a PBST buffer (PBS containing 0.1% (v/v) tween-20, pH 7.4). […] After the incubation, the plate was washed 3 times with PBST. […] After the plate was washed 6 times with PBST, a TMB chromogenic substrate (KPL, 52-00-03) was added at 50 μL/well, and the plate was incubated at room temperature for 10-15 min. Then, 1 M H₂SO₄ was added at 50 μL/well to stop the reaction. The absorbance at 450 nm was read with a NOVOStar microplate reader, and the EC₅₀ values for the binding of the TSLP antibodies to TSLP were calculated.

- EC50: 0.202 nM
B3: hu119-08 (antibody, human IgG1, kappa)
heavy: EVQLVQSGAEVKKPGSSVKVSCKASGFTFSTYNMHWVKHAPGQGLEWIGAIYPGNGETSYNQKFKDRATLTVDKSTSTAYMELSSLRSEDTAVYYCAREDDYGEGYFDVWGQGTTVTVSSASTKGPSVFPLAPSSKSTSGGTAALGCLVKDYFPEPVTVSWNSGALTSGVHTFPAVLQSSGLYSLSSVVTVPSSSLGTQTYICNVNHKPSNTKVDKKVEPKSCDKTHTCPPCPAPELLGGPSVFLFPPKPKDTLYITREPEVTCVVVDVSHEDPEVKFNWYVDGVEVHNAKTKPREEQYNSTYRVVSVLTVLHQDWLNGKEYKCKVSNKALPAPIEKTISKAKGQPREPQVYTLPPSRDELTKNQVSLTCLVKGFYPSDIAVEWESNGQPENNYKTTPPVLDSDGSFFLYSKLTVDKSRWQQGNVFSCSVMHEALHNHYTQKSLSLSPGK
light: DIVLTQSPDSLAVSLGERATINCRASESVDNSGLSFMHWYQQKPGQPPKLLIYRASNLGSGVPDRFSGSGSGTDFTLTISSLQAEDVAVYYCQQINTDPLTFGQGTKLEIKRTVAAPSVFIFPPSDEQLKSGTASVVCLLNNFYPREAKVQWKVDNALQSGNSQESVTEQDSKDSTYSLSSTLTLSKADYEKHKVYACEVTHQGLSSPVTKSFNRGEC
notes: IgG1-YTE, kappa

- EC50: 0.203 nM
B6: hu119-12 (antibody, IgG1, V domains shown)
VH: EVQLVQSGAEVKKPGSSVKVSCKASGFTFSTYNMHWVKHAPGQGLEWIGAIYPGNGETSYNQKFKDRATLTVDKSTSTAYMELSSLRSEDTAVYYCAREDDYGEGYFDVWGQGTTVTVSS
VL: DIVMTQSPDSLAVSLGERATINCRASESVDNSGLSFMHWYQQKPGQPPKLLLYRASNLGSGIPDRFSGSGSGTDFTLTISSLQAEDVAVYYCQQINTDPLTFGQGTKLEIKR
notes: IgG1-YTE, kappa

- EC50: 0.265 nM
B7: hu119-28 (antibody, human IgG1, kappa, V domains shown)
VH: B6 VH
VL: B6 VL with M4L, N31S, L52I, I62V
notes: IgG1-YTE, kappa; also called hu119VH3 + hu119VL2-N31S

- EC50: 0.149 nM
B8: hu119-09 (antibody, human IgG1, kappa, V domains shown)
VH: B6 VH with F27G, K38R, H39Q, I48M, A68V, L70I, V72A
VL: B6 VL
notes: IgG1-YTE, kappa

- EC50: 0.107 nM
B9: hu119-01 (antibody, human IgG1, kappa)
heavy: B3 heavy with F27G, K38R, H39Q, I48M, A68V, L70I, V72A
light: B3 light with L4M
notes: IgG1-YTE, kappa

- EC50: 0.233 nM
B12: hu119-10 (antibody, human IgG1, kappa, V domains shown)
VH: B6 VH with K38R, H39Q, I48M, A68V
VL: B6 VL
notes: IgG1-YTE, kappa

- EC50: 0.189 nM
B18: hu179-04 (antibody, human IgG1, kappa, V domains shown)
VH: EVQLVQSGAEVKKPGSSVKVSCKASGYTFSNYLIEWVRQAPGQGLEWMGVIDPGNGDTNYNENFKGRVTLTADKSTSTAYMELSSLRSEDTAVYYCAREDNTGTAFDYWGQGTTVTVSS
VL: DIVMTQSPDSLAVSLGERATINCKASQSVSSDVTWYQQKPGQSPKLLIYYVSNHYTGVPDRFSGSGSGTDFTLTISSLQAEDVAVYYCQQHHRFPLTFGQGTKLEIKR
notes: IgG1-YTE, kappa

- EC50: 0.144 nM
B19: hu179-12 (antibody, human IgG1, kappa, V domains shown)
VH: B18 VH with R38K, M48I, R67K, V68A, M81I, S85R
VL: B18 VL with S43P
notes: IgG1-YTE, kappa

- EC50: 0.997 nM
B24: hu179-23 (antibody, human IgG1, kappa, V domains shown)
VH: B18 VH with Y27G, L70I
VL: B18 VL with N53D
notes: IgG1-YTE, kappa

- EC50: 0.205 nM
B26: hu179-14 (antibody, human IgG1, kappa, V domains shown)
VH: B18 VH with T28A, M48I, V68A
VL: B18 VL with L73F
notes: IgG1-YTE, kappa

- EC50: 0.978 nM
B29: hu179-21 (antibody, human IgG1, kappa, V domains shown)
VH: B18 VH with Y27G, N55V, L70I
VL: B18 VL
notes: IgG1-YTE, kappa; also called hu179VH1-N55V + hu179VL2

- EC50: 0.201 nM
B30: hu179-26 (antibody, human IgG1, kappa, V domains shown)
VH: B18 VH with M48I, V68A, M81I
VL: B18 VL with S52D
notes: IgG1-YTE, kappa

- EC50: 0.708 nM
B31: hu179-20 (antibody, human IgG1, kappa, V domains shown)
VH: B18 VH with Y27G, N55Q, L70I
VL: B18 VL
notes: IgG1-YTE, kappa; also called hu179VH1-N55Q + hu179VL2

- EC50: 0.203 nM
B34: hu179-15 (antibody, human IgG1, kappa, V domains shown)
VH: B18 VH with T28A, M48I, V68A
VL: B18 VL with D1S
notes: IgG1-YTE, kappa

The remaining lines, values behind:

B1: hu119-27 (antibody, human IgG1, kappa)
heavy: B3 heavy with V2A, K38R, H39Q, S77R
light: DIVLTQSPATLSLSPGERATLSCRASESVDNSGLSFMHWYQQKPGQPPRLLLYRASNLGSGIPARFSGSGSGTDFTLTISSLEPEDFAVYYCQQINTDPLTFGQGTKLEIKRTVAAPSVFIFPPSDEQLKSGTASVVCLLNNFYPREAKVQWKVDNALQSGNSQESVTEQDSKDSTYSLSSTLTLSKADYEKHKVYACEVTHQGLSSPVTKSFNRGEC
notes: IgG1-YTE, kappa
- EC50: 0.335 nM

B2: hu119-02 (antibody, human IgG1, kappa)
heavy: B3 heavy with K38R, H39Q, I48M, A68V
light: B3 light with L4M
notes: IgG1-YTE, kappa
- EC50: 0.194 nM

B4: hu119-29 (antibody, human IgG1, kappa, V domains shown)
VH: B6 VH
VL: B6 VL with M4L, N31Q, L52I, I62V
notes: IgG1-YTE, kappa; also called hu119VH3 + hu119VL2-N31Q
- EC50: 0.273 nM

B5: hu119-05 (antibody, human IgG1, kappa)
heavy: B3 heavy with F27G, K38R, H39Q, I48M, A68V, L70I, V72A
light: B3 light
notes: IgG1-YTE, kappa
- EC50: 0.144 nM

B10: hu119-04 (antibody, IgG1)
heavy: B3 heavy
light: B3 light with L4M
notes: IgG1-YTE, kappa
- EC50: 0.188 nM

B11: hu119-06 (antibody, human IgG1, kappa)
heavy: B3 heavy with K38R, H39Q, I48M, A68V
light: B3 light
notes: IgG1-YTE, kappa
- EC50: 0.221 nM

B13: Ch3 (antibody, human IgG1, kappa, V domains shown)
VH: EVQLQQSGPVLVKPGASVKMSCKASGYTFTDDYMNWVKQSHGKSLEWIGIISPYNGGTSYNQKFKGKATLTVDKSSSTAYMELNSLTSEDSAVYYCAREDYDYDGYAMDHWGQGTSVTVSS
VL: QIVLSQSPAILSASPGEKVTMTCRASSSVSYMHWYQQKPGSSPKPWIYATSNLASGVPARFSGSGSGTSYSLTISRVEAEDAATYYCQQWSSNRTFGGGTKLEIKR
notes: murine variable regions on human IgG1-YTE / kappa; also called chimeric antibody corresponding to mab3
- EC50: 0.493 nM

B14: Ch119 (antibody, human IgG1, kappa, V domains shown)
VH: QAYLQQSGAELVRPGASVKMSCKASGFAFTTYNMHWVKHTPGQGLEWIGAIYPGNGETSYNQKFKDRATLTVDKSSRTAYMQLSSLTSEDSAVYFCAREDDYGEGYFDVWGAGTTVTVSS
VL: DIVLTQSPASLAVSLGQRATISCRASESVDNSGLSFMHWYQQKPGQPPRLLLYRASNLGSGIPARFSGSGSGTDFTLTLNPVETDDVATYYCQQINTDPLTFGAGTKLELKR
notes: murine variable regions on human IgG1-YTE / kappa; also called chimeric antibody corresponding to mab119
- EC50: 0.851 nM

B15: Ch179 (antibody, human IgG1, kappa, V domains shown)
VH: QVQLQQSGAELVRPGTSVKVSCKASGYAFTNYLIEWVKQRPGQGLEWIGVIDPGNGDTNYNENFKGKATLTADKSSSTAYIELSRLTSEDSAVYFCAREDNTGTAFDYWGQGTTLTVSS
VL: SIVMTQTPKFLLVSAGDRVTISCKASQSVSSDVTWYQQKPGQSPKLLIYYVSNHYTGVPDRFTGSGYGTDFTFTISSVQAEDLAVYFCQQHHRFPLTFGAGTKLELKR
notes: murine variable regions on human IgG1-YTE / kappa; also called chimeric antibody corresponding to mab179
- EC50: 0.202 nM

B16: hu179-06 (antibody, human IgG1, kappa, V domains shown)
VH: B18 VH with M48I, V68A, M81I
VL: B18 VL
notes: IgG1-YTE, kappa
- EC50: 0.219 nM

B17: hu179-01 (antibody, human IgG1, kappa, V domains shown)
VH: B18 VH with Y27G, L70I
VL: B18 VL with S43P
notes: IgG1-YTE, kappa
- EC50: 0.125 nM

B20: hu179-27 (antibody, human IgG1, kappa, V domains shown)
VH: B18 VH with M48I, V68A, M81I
VL: B18 VL with S52E
notes: IgG1-YTE, kappa
- EC50: 0.18 nM

B21: hu179-25 (antibody, human IgG1, kappa, V domains shown)
VH: B18 VH with M48I, V68A, M81I
VL: B18 VL with Y50E
notes: IgG1-YTE, kappa
- EC50: 0.131 nM

B22: hu179-03 (antibody, human IgG1, kappa, V domains shown)
VH: B18 VH
VL: B18 VL with S43P
notes: IgG1-YTE, kappa
- EC50: 0.138 nM

B23: hu179-07 (antibody, human IgG1, kappa, V domains shown)
VH: B18 VH with M48I, V68A, M81I
VL: B18 VL with L73F
notes: IgG1-YTE, kappa
- EC50: 0.448 nM

B25: hu179-13 (antibody, human IgG1, kappa, V domains shown)
VH: B18 VH with R38K, M48I, R67K, V68A, M81I, S85R
VL: B18 VL
notes: IgG1-YTE, kappa
- EC50: 0.201 nM

B27: hu179-24 (antibody, human IgG1, kappa, V domains shown)
VH: B18 VH with Y27G, L70I
VL: B18 VL with H54Y
notes: IgG1-YTE, kappa
- EC50: 0.636 nM

B28: hu179-22 (antibody, human IgG1, kappa, V domains shown)
VH: B18 VH with Y27G, G56V, L70I
VL: B18 VL
notes: IgG1-YTE, kappa; also called hu179VH1-G56V + hu179VL2
- EC50: 0.752 nM

B32: hu179-05 (antibody, human IgG1, kappa, V domains shown)
VH: B18 VH with M48I, V68A, M81I
VL: B18 VL with S43P
notes: IgG1-YTE, kappa
- EC50: 0.142 nM

B33: hu179-02 (antibody, human IgG1, kappa, V domains shown)
VH: B18 VH with Y27G, L70I
VL: B18 VL
notes: IgG1-YTE, kappa
- EC50: 0.17 nM
